Series [1] in a line: CD spectroscopy. As to conditions: 20°C, 20 mM potassium phosphate pH 7.5, 0.5 mM DTT, SELCON3, 0.29, 0.14 and 0.086 mg/ml. In kind it is physicochemical. As for the experimental part: (§1) All CD spectra were recorded on a Chirascan CD spectrometer (Applied Photophysics) in quartz cuvettes with a 0.1 cm path length. Data were recorded at 20°C between 260 - 180 nm in 1 nm increments and a 2 nm bandwidth over an average of two scans. The KLC2^TPR-myc and Trp-JIP3^LZ proteins were dialysed extensively into 20 mM potassium phosphate pH 7.5, 0.5 mM DTT. Spectra were collected from KLC2^TPR-myc samples at concentrations of 0.29, 0.14 and 0.086 mg/ml. Trp-JIP3^LZ spectra were collected at 0.15, 0.074 and 0.044 mg/ml. One spectrum was recorded for each sample at each concentration and background-corrected by subtraction of a buffer-only spectrum. Corrected spectra were converted to units of mean residue ellipticity and deconvolved using the Dichroweb server ([Whitmore and Wallace, 2008]). KLC2^TPR-myc and Trp-JIP3^LZ spectra were analysed using the SELCON3 and CONTIN algorithms, respectively, using reference dataset set 4 ([Sreerama et al., 1999], [van Stokkum et al., 1990]). For each protein, the mean percentage of each secondary structure type, and the corresponding standard deviation, was calculated from the values obtained from the three concentrations. The secondary structure content for KLC2^TPR-myc and Trp-JIP3^LZ were calculated using the KLC2^TPR:JIP3^LZ crystal structure using the STRIDE server (http://webclu.bio.wzw.tum.de/cgi-bin/stride/stridecgi.py) ([Frishman and Argos, 1995]).

Series [2] concerns KLC2^TPR. The series is described as follows: ITC of KLC2^TPR binding to GST3C-JIP3^LZ, two-stage sequential model. Details: species or system murine. As to conditions: for K, macroscopic association constant / ΔH / –TΔS: ITC, 25°C, 0.5 M NaCl, pH 7.5, globally fitted over four experiments; for K, macroscopic association constant: 25 mM HEPES, 5 mM MgCl2, 1 mM TCEP. Here is the method:
For ITC studies with the KLC2^TPR and GST-JIP3^LZ, the high KLC2^TPR concentrations required to use this protein as titrant necessitated a higher salt concentration than that used for crystallographic studies. The KLC2^TPR was prepared as above for crystallographic studies but the final size exclusion chromatography step was performed in 500 mM NaCl, 25 mM HEPES, 5mM MgCl2, 1 mM TCEP (final pH 7.5). The GST-JIP3^LZ protein was bound to glutathione sepharose resin in batch as described above for the JIP3^LZ. The GST-JIP3^LZ protein was eluted in 0.25 M NaCl, 50 mM TRIS.HCl, 1 mM TCEP, 25 mM glutathione; final pH 7.5, and purified by size exclusion chromatography on a Superdex 200 16/600 column (GE Healthcare) equilibrated in 500 mM NaCl, 25 mM HEPES, 5mM MgCl2 and 1 mM TCEP (final pH 7.5).
To study the binding of the KLC2^TPR to GST3C-JIP3^LZ, the proteins were prepared by size exclusion chromatography in 0.5 M NaCl, 25 mM HEPES, 5 mM MgCl2, 1 mM TCEP, final pH 7.5. ITC measurements were performed on a MicroCal iTC200 calorimeter (Malvern) at 25°C, with a differential power of 5.0 μcal/s and stirring at 750 rpm. Experiments consisted of an initial sacrificial 0.5 μl injection, followed 120 s later by 19 injections of 2 μl spread over 4 s, spaced 120 s apart. Thermograms were integrated and corrected for heats of dilution using NITPIC (http://biophysics.swmed.edu/MBR/software.html). The resulting isotherms were analysed in SEDPHAT (http://www.analyticalultracentrifugation.com/sedphat/) ([Keller et al., 2012], [Zhao et al., 2015]). The isotherms from these experiments were globally fitted with the A + B + B → AB + B → ABB model. […] Figures were prepared using GUSSI (http://biophysics.swmed.edu/MBR/software.html).

A short description of series [3]: Secondary structure content calculated from the KLC2^TPR:JIP3^LZ crystal structure (STRIDE). As for the experimental part: as §1, with “Corrected spectra were converted to units of mean residue ellipticity and deconvolved using the Dichroweb server ([Whitmore and Wallace, 2008]).” left out
Series [4] is described as follows: SEC-MALLS. The format is physicochemical. The settings on record: 25 mM HEPES pH 7.5, 0.1 M NaCl, 1 mM TCEP. As for the experimental part:
Fifty microliters of JIP3^LZ was injected onto a WTC-030S5 column, pre-equilibrated with buffer containing 25 mM HEPES pH 7.5, 0.1 M NaCl and 1 mM TCEP at a flow rate of 1 ml/min. Data were recorded using a DAWN 8+ multi-angle light scattering (LS) detector, an Optilab T-rEX differential refractive index (dRI) detector and UV absorbance (UV) detector (Wyatt Technology) and analyzed with the Astra 6.2 software package provided by the manufacturer (Wyatt Technology).

Where [5] appears, read: stage A + B + B → BA + B (first KLC2^TPR).
Where [6] appears, read: stage BA + B → BAB (second KLC2^TPR).

B1: KLC2^TPR-myc: murine KLC2 residues 191-480 with … fused to the C-terminus (protein)
chain: GYEIPARLRTLHNLVIQYASQGRYEVAVPLCKQALEDLEKTSGHDHPDVATMLNILALVYRDQNKYKDAAHLLNDALAIREKTLGKDHPAVAATLNNLAVLYGKRGKYKEAEPLCKRALEIREKVLGKFHPDVAKQLSNLALLCQNQGKAEEVEYYYRRALEIYATRLGPDDPNVAKTKNNLASCYLKQGKYQDAETLYKEILTRAHEKEFGSVNGENKPIWMHAEEREESKDKRRDRRPMEYGSWYKACKVDSPTVNTTLRTLGALYRPEGKLEAAHTLEDCASRSRKQ
modifications: left off: His6-SUMO, N-terminal, cleaved | myc (…), C-terminal, kept
For the molecule B1, in series [1], the “secondary structure content by CD versus crystal structure” value is “very similar to that calculated from the KLC2^TPR:JIP3^LZ crystal structure”.

B2: GST-JIP3^LZ: GST and 3C site fused to murine JIP3 isoform A leucine zipper, residues 417-487 (protein, UniProt Q9ESN9 417-487, looked up, fragment)
chain: MGKEVGNLLLENSQLLETKNALNVVKNDLIAKVDQLSGEQEVLKGELEAAKQAKVKLENRIKELEEELKRV
modifications: isoform A N-terminal GST tag, 3C site
Take B2: in series [2] (binding of the first KLC2^TPR), the thermodynamic driving force entry is “enthalpically driven”. Further, the thermodynamic driving force entry in series [2] (binding of the second KLC2^TPR) is reported as “entropically driven”. Besides, in series [2] (setting [5]), the “K, macroscopic association constant” value is 0.1317 µM⁻¹; the ΔH was -18.756 kcal/mol; the “–TΔS” value was determined as 11.772 kcal/mol. Moreover, in series [2] (setting [6]), the “K, macroscopic association constant” value is 0.1315 µM⁻¹; the ΔH was found to be 0.952 kcal/mol; the “–TΔS” value is -7.935 kcal/mol. In series [2] (suggested by very similar macroscopic association constants), the “cooperativity of binding of two KLC2^TPR subunits” value is listed as “positive cooperativity”.

B3: JIP3^LZ: JIP3 leucine zipper domain, residues 417-487 of murine JIP3 isoform A (protein)
chain: WMGKEVGNLLLENSQLLETKNALNVVKNDLIAKVDQLSGEQEVLKGELEAAKQAKVKLENRIKELEEELKRV
modifications: left off: GST, N-terminal, cleaved
notes: JIP3 leucine zipper domain, residues 417-487 of murine JIP3 isoform A
In the case of B3, the “α-helical content calculated from crystal structure” value in series [3] is given as 77%. Besides, in series [4], the “oligomeric state in solution” value is “stable dimer”.

(Values after PMC6224480, “Insights into Kinesin-1 Activation from the Crystal Structure of KLC2 Bound to JIP3” (Structure(London, England:1993), 2018).)
